What was measured:
[1] = target: recombinant yeast (H3-H4)2 tetramer (yeast, UniProt P61830 1-136; P02309 1-103); assay: other fluorescence titration
AUC = target: the molecule itself; assay: AUC
[2] = target: T1, Rtt109 (recombinant, purified) (yeast, UniProt Q07794 1-436); assay: AUC
T1 sequence (looked up): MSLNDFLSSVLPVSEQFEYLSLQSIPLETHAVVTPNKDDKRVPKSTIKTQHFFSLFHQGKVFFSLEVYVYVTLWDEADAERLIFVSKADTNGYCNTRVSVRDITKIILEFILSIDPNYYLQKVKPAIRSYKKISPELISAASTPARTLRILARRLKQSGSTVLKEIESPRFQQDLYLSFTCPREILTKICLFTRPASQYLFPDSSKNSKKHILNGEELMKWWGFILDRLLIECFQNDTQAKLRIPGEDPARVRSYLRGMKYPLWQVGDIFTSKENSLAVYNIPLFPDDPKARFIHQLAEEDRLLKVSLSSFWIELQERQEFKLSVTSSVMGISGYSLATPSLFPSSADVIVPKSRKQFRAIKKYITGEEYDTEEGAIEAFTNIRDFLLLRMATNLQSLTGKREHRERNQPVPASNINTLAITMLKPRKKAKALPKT

Row | Binder | Kd [1] [nM] | stoichiometry N (AUC) | binding result [2]
1 | Alexa-546-labeled Vps75 (natural protein, S. cerevisiae, Alexa-546 label, position not stated) MMSDQENENEHAKAFLGLAKCEEEVDAIEREVELYRLNKMKPVYEKRDAYIDEIAEFWKIVLSQHVSFANYIRASDFKYIDTIDKIKVEWLALESEMYDTRDFSITFHFHGIEGDFKEQQVTKVFQIKKGKDDQEDGILTSEPVPIEWPQSYDSINPDLIKDKRSPEGKKKYRQGMKTIFGWFRWTGLKPGKEFPHGDSLASLFSEEIYPFCVKYYAEAQRDLEDEEGESGLSADGDSEDDDGSLGEVDLPLSDEEPSSKKRKV | 27 |  | 
2 | Vps75_(1−223) (Vps75 lacking the C-terminal acidic domain) (domain or fragment, S. cerevisiae, UniProt P53853 1-223, looked up) MMSDQENENEHAKAFLGLAKCEEEVDAIEREVELYRLNKMKPVYEKRDAYIDEIAEFWKIVLSQHVSFANYIRASDFKYIDTIDKIKVEWLALESEMYDTRDFSITFHFHGIEGDFKEQQVTKVFQIKKGKDDQEDGILTSEPVPIEWPQSYDSINPDLIKDKRSPEGKKKYRQGMKTIFGWFRWTGLKPGKEFPHGDSLASLFSEEIYPFCVKYYAEAQRDL |  | 2 | binds

Source: publication PMC2680711 (Nature structural & molecular biology, 2008)
